Reference: the supplement of paper PMC10567573

B1: C22orf15 (parent)
chain: RGRHEQSPTSRPRKVSSLPPRSC
B2: ZNF277 (parent)
chain: ILREELQKQRLREILEQQQQERND

Variants of: B1
Assay: protein stability index of a GFP-peptide fusion (GPS, HEK-293T) (PSI 1-6); higher = more stable
Conditions: c terminus: native
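Further: lentivirally expressed fusions sorted by FACS into six bins by GFP to DsRed ratio, PSI derived from sequencing read proportions per bin multiplied by bin number.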

Protein stability index: each site, then its substitutions
R13: D 4.32, F 2.43, E 2.88, C 3.56
S10: K 1.93, T 2.83, H 1.87, V 2.85, R 1.8, F 1.99, D 1.09, A 1.64, C 2.51, P 1.61
E5: K 2.68, R 2.19, Y 4.38, F 2.19, N 2.19, L 2.09, P 2.93
H4: A 1.91, C 2.55, R 3.58, I 3.17, N 3.03, F 2.91, V 2.38, T 3.06
S7: V 3.68, D 2.76, F 2.94, Y 2.32, R 2.69, N 2.44
G2: D 2.01, S 3.1, E 1.27, M 1.9, R 2.96, H 1.16, I 2.64, Q 2.2, F 2.04, C 1.57, Y 3.84
T9: A 3.73, Y 2.35, H 1.83, G 2.07, K 2.44, C 1.52, R 3.3, S 2.58
R1: Y 3.26, D 2.81, V 1.73, M 3.56, W 3.77, A 3.06
P8: N 2.71, H 3.48, C 3.78, R 4.11, Q 2.65, K 3.28, G 2.55
R3: V 2.05, H 2.76, L 4.27, C 3.01, I 3.03, K 2.27
Q6: Y 2.05, W 4.38, S 1.79, I 4.15, L 2.54, V 3.92, T 1.97
P12: M 1.89, H 2.55, T 2.55, D 2.8, G 1.4, W 2.55, Y 3.13, Q 3.88
R11: G 2.87, A 2.33, K 3.4, Q 3.32, W 5, T 2.51, S 2.31, N 2.35, P 3.98

Variants of: B2
Assay: as above
Conditions: c terminus: a fixed tail appended

Protein stability index, by site and new letter:
I14: A 5.04, N 4.46, Q 4.81, Y 4.34, F 3.5, D 5.07, V 4.25, E 4.85, H 3.89, M 4.3, G 4.74, P 5.11, K 3.53, L 3.01, T 4.84, R 3.49, C 4.13
E13: V 4.06, A 3.74, C 3.76, Y 4.07, T 4.58, I 4.06, K 4.22, F 3.77, P 4.56, S 4.18, Q 4.22, G 4.54, L 3.75, M 4.01, N 4.05, H 4.46, R 4.11
L15: Q 5.14, R 4.82, F 4.22, W 4.14, H 5.11, D 4.77, T 4.67, K 4.37, M 4.03, V 4.37, E 4.99, I 4.48, C 4.62, G 4.94, S 4.99, N 4.32, P 4.54, Y 4.18, A 5.04
R12: I 4.15, N 4.86, Y 3.87, W 3.67, K 4.6, E 5.08, A 4.73, D 5.8, M 4.58, P 4.78, T 5.29, Q 4.72, G 5.05, L 4.36, C 4.45, F 4.23, V 4.41, H 4.14
Q17: W 3.49, V 4.22, T 4.16, G 4.25, E 4.82, N 4.51, A 3.83, D 4.54, M 3.88, P 4.2, S 4.63, I 3.33, C 3.6, F 3.87, H 4.38, L 4.29, R 3.77
R22: Q 4.44, F 3.81, P 4.57, K 4.63, N 4.75, Y 4.54, L 4.46, W 3.72, M 4.45, V 3.53, G 4.67, H 4.4, T 4.76, D 4.92, E 4.61, C 4.48, S 4.73, A 4.4, I 3.81
E21: I 2.94, Y 3.73, V 3.2, D 4.22, W 2.95, P 3.04, C 3.04, L 3.52, Q 3.38, A 4.39, M 3.73, G 4.04, S 4.41, K 4.26, R 2.69, N 3.9, T 4.09, H 4.61, F 3.4
L11: V 2.73, W 3.94, Y 4.58
Q18: A 3.98, E 4.93, P 4.68, W 4.15, L 3.37, C 3.31, I 2.52, T 3.57, K 3.72, S 3.99, R 4.97, M 3.59, Y 2.9, D 4.46, V 3.83, F 4.37, N 4.37, G 4.57
D24: K 3.83, E 4.12, N 4.08, Q 4.18, R 3.48, L 4.08, F 3.26, W 2.73, S 3.68, M 4.14, H 3.16, C 3.91, Y 3.7, T 4.01, P 3.85, A 3.47, V 4.05, I 3.64, G 3.77
N23: P 4.47, K 4.1, Y 3.56, R 3.75, V 3.89, D 4.96, W 3.22, H 4.04, C 3.98, M 4.14, E 4.59, I 4.02, A 4.53, F 3.73, G 3.98, L 3.92, S 4.05, T 4.37, Q 4.13
E16: M 3.81, N 3.89, A 3.07, T 4.71, Q 3.77, P 4.8, R 3.53, F 3.66, L 3.63, H 3.87, D 4.61, I 3.74, S 4.04, W 2.87, V 3.9, K 3.83, G 3.51
Q19: C 4.45, K 3.7, H 4.67, S 4.41, F 2.91, A 4.13, D 4.4, V 4.44, W 2.85, G 4.57, N 3.5, E 3.98, T 3.64, Y 3.98, L 3.87, M 3.35, P 4.29
Q20: G 4.22, S 4.37, L 4.05, N 4.3, P 4.17, W 3.18, A 4.93, R 4.41, C 4.2, Y 4.16, K 4.51, H 3.94, V 3.74, M 3.96, E 5.03, I 4.36, T 3.29, F 3.44
